Key:
[1] = target: EXP2 (P. falciparum (endogenous in strain NF54attB)); assay: cryo-EM structure
[2] = target: PTEX150 (P. falciparum (endogenous in strain NF54attB)); assay: cryo-EM structure

Substance | stoichiometry N [1] | stoichiometry N [2]
EXP2 (natural protein) | 7 | –
PTEX150 (natural protein) | – | 7
